Numbering of substitutions follows the chain as printed.
Key:
FBF-2 RBD+CT Y479A [1] = target: T1, FBF-2 RBD+CT Y479A (Caenorhabditis elegans, UniProt Q09312 164-632, Y479A); experiment: EMSA; 50 uM LST-1 B present (Y479A disrupts LST-1 binding, no complex); EMSA: FBF-2 in 20 mM HEPES pH 7.4, 150 mM NaCl, 0.5 mM TCEP mixed 1:1 with 5 nM final RNA in 10 mM HEPES pH 7.4, 0.01% Tween 20, 0.1 mg/ml BSA, 0.1 mg/ml yeast; details: protein: recombinant; tags: none (His6-SUMO removed with Ulp1); label: 3'-Cy5
T1 sequence: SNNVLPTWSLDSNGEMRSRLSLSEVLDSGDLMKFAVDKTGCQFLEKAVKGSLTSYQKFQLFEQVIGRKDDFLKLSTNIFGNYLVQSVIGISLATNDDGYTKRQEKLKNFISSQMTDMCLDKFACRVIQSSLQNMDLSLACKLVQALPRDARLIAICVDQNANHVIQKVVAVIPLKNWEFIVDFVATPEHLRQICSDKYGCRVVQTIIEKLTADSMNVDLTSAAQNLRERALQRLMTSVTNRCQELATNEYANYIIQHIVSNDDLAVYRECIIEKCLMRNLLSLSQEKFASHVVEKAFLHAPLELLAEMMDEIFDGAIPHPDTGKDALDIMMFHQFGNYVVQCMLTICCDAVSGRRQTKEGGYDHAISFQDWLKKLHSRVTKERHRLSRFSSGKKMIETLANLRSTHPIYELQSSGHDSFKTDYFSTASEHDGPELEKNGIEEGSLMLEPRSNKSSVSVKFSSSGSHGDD

FBF-2 RBD+CT Loop6A = target: T2, FBF-2 RBD+CT Loop6A (Caenorhabditis elegans, UniProt Q09312 164-632, E592A;D594A;E597A;E599A;E604A;E605A); experiment: EMSA; no LST-1; EMSA: FBF-2 in 20 mM HEPES pH 7.4, 150 mM NaCl, 0.5 mM TCEP mixed 1:1 with 5 nM final RNA in 10 mM HEPES pH 7.4, 0.01% Tween 20, 0.1 mg/ml BSA, 0.1 mg/ml yeast; details: protein: recombinant; tags: none (His6-SUMO removed with Ulp1); label: 3'-Cy5
T2 sequence: T1 sequence with A316Y, E429A, D431A, E434A, E436A, E441A, E442A

FBF-2 RBD = target: T3, FBF-2 RBD (Caenorhabditis elegans, UniProt Q09312 164-575); experiment: as above; details: protein: recombinant; tags: none (His6-SUMO removed with TEV protease); label: 3'-Cy5
T3 sequence: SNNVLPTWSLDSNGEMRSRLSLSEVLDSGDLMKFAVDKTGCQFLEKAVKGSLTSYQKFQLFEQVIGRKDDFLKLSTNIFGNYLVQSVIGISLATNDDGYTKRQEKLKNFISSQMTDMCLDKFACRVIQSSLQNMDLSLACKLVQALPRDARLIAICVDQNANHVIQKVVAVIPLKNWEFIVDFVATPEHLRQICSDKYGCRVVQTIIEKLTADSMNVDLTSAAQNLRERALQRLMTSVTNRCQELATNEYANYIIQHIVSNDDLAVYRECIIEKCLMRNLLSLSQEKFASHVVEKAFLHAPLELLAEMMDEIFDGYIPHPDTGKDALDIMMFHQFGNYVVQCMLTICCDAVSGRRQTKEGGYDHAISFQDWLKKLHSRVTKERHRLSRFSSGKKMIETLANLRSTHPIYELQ

FBF-2 RBD+CT Y479A [2] = target: T1, FBF-2 RBD+CT Y479A; experiment: as above; details: protein: recombinant; tags: none (His6-SUMO removed with Ulp1); label: 3'-Cy5
FBF-2 RBD+CT = target: T4, FBF-2 RBD+CT (Caenorhabditis elegans, UniProt Q09312 164-632); experiment: as above; details: protein: recombinant; tags: none (His6-SUMO removed with Ulp1); label: 3'-Cy5
T4 sequence: T1 sequence with A316Y

AUCAUGUGCCAUAC (ssRNA) [gld-1 FBEa RNA (EMSA)]
Kd (FBF-2 RBD+CT Y479A [1]): 41 ± 6 nM | Kd (FBF-2 RBD+CT Loop6A): 101 ± 21 nM | Kd (FBF-2 RBD): 70 ± 23 nM | Kd (FBF-2 RBD+CT Y479A [2]): 62 ± 14 nM | Kd (FBF-2 RBD+CT): 334 ± 61 nM
